Assay results published in patent publication US20050153894A1, “p21 peptides” (Cyclacel Limited, priority 1999, published 2005).
Square brackets hold non-standard residues; d marks the D form. Ends that are not written are not given here. Phe(3-F) = N[C@@H](Cc1cccc(F)c1)C(=O)O; 1Nal = N[C@@H](Cc1cccc2ccccc12)C(=O)O; Nle = CCCC[C@H](N)C(=O)O; Nva = CCC[C@H](N)C(=O)O; Abu = CC[C@H](N)C(=O)O; Pse = Phenylserine

What was measured:
Cyclin D1 = molecular target: T1, Cyclin D1 (Homo sapiens, UniProt P24385); assay: Competitive Cyclin D1 binding assay (ELISA), immobilised biotinylated p21 (149-159); conditions: immobilised p21 (149-159) peptide
T1 construct: made in house
T1 sequence (P24385 whole entry): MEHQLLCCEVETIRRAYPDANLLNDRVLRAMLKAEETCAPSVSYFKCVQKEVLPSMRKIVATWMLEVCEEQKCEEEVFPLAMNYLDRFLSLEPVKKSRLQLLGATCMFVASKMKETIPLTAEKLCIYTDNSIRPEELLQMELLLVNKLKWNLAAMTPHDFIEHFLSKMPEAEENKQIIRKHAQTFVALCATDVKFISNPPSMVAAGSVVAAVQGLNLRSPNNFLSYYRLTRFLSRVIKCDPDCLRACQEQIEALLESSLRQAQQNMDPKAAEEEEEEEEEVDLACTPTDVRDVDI
From the text: The amount of bound Cyclin D1/Cyclin A was immunodetected and quantified by Turbo-ELISA reagent (PIERCE).
The next important question was if these peptides share the same kinase inhibitory mechanism (bind to the same Cyclin docking site).

CDK2/cyclin A = CDK2/cyclin A (Homo sapiens, UniProt P20248); assay: CDK2/cyclin A kinase assay, substrate pRb(773-928); format: biochemical; conditions: pRb substrate, [ATP] = 100 μM
From the text: Reactions were stopped on ice, followed by filtration through p81 filterplates (Whatman Polyfiltronics, Kent, UK).

Cyclin A = Cyclin A (Homo sapiens, UniProt P20248); assay: Cyclin A binding assay, immobilised biotinyl-Ahx-[…]NH2
Cyclin A, sequence (P20248 whole entry): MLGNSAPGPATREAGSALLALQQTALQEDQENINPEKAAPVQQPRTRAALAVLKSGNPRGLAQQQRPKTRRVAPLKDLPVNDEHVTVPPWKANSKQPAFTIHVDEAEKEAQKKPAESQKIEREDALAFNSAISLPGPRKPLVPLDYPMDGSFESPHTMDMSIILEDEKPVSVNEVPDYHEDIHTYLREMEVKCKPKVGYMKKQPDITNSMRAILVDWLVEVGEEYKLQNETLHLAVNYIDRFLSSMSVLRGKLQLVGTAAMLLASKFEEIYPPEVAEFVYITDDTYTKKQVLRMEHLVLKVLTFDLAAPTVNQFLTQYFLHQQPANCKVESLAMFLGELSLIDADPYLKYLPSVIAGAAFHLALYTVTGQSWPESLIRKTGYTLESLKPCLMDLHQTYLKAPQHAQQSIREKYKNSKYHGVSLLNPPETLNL
Method: This was added to each well (100 μL). The plate was incubated for 1 h at room temperature with constant shaking. The plate was washed once quickly with TBS/BSA buffer (200 μL), followed by three more washes with TBS/BSA buffer (200 μL) for 5 min each. Serial dilutions of test peptides were prepared in a new plate (50 μL in each well). Cyclin A was diluted to 5 μg/50 μL with TBS/BSA buffer and this was then added to each well (50 μL). The solutions were mixed thoroughly with a pipette (5-6 times), before being incubated for 30 min at room temperature. This reaction mixture was then transferred to the biotinylated peptide: streptavidin-coated plate and incubated for 1 h at room temperature with constant shaking. The plate was washed once quickly with TBS/BSA buffer (200 μL), followed by three more washes with TBS/BSA buffer (200 μL) for 5 min each. The cyclin A antibody (Santa Cruz polyclonal) solution was diluted 1:200 with TBS/BSA buffer and this was then added to each well of the plate (100 μL. The plate was incubated for 1 h at room temperature with constant shaking. The plate was washed once quickly with TBS/BSA buffer (200 μl), followed by three more washes with TBS/BSA buffer (200 μL) for 5 min each. The anti-rabbit secondary antibody (goat anti-rabbit IgG peroxidase conjugate) was diluted 1:10,000 with TBS/BSA and this was then added to each well of the plate (100 μL). The plate was incubated for 1 h at room temperature with constant shaking. The plate was washed once quickly with TBS/BSA buffer (200 μL), followed by three more washes with TBS/BSA buffer (200 μL) for 5 min each. To each well was added the TMB-ELISA reagent (Pierce 1-Step™ Turbo TMB-ELISA; 100 μL) and the plate incubated for 1 min with constant shaking. The reaction was then quenched by the addition of 2 M aqueous H2SO4 (100 μL, each well). The UV absorbance of the each solution was measured spectrophotometrically at 450 nm. IC50 values were calculated from dose-response curves.

[1] = Lys154 substitutions, relative to H-His-Ala-Lys-Arg-Arg-Leu-Ile-Phe-NH2 (=1)
[2] = Arg155 substitutions, relative to H-His-Ala-Lys-Arg-Arg-Leu-Ile-Phe-NH2 (=1)
[3] = Arg156 substitutions, relative to H-His-Ala-Lys-Arg-Arg-Leu-Ile-Phe-NH2 (=1)
[4] = Leu157 substitutions, relative to H-His-Ala-Lys-Arg-Arg-Leu-Ile-Phe-NH2 (=1)
[5] = His152 substitutions, relative to H-His-Ala-Lys-Arg-Arg-Leu-Ile-Phe-NH2 (=1)
[6] = Ile158 substitutions, relative to H-His-Ala-Lys-Arg-Arg-Leu-Ile-Phe-NH2 (=1)
[7] = Ala153 substitutions, relative to H-His-Ala-Lys-Arg-Arg-Leu-Ile-Phe-NH2 (=1)
[8] = Phe159 substitutions, relative to H-His-Ala-Lys-Arg-Arg-Leu-Ile-Phe-NH2 (=1)

In the case of `CC[C@H](NC(=O)[C@H](C)NC(=O)[C@@H](N)CO)C(=O)N[C@@H](CCCNC(=N)N)C(=O)N[C@@H](CC(N)=O)C(=O)N[C@@H](CC(C)C)C(=O)N[C@@H](Cc1ccccc1)C(=O)NCC(N)=O` [SEQ ID NO. 41, H-Ser-Ala-Abu-Arg-Asn-Leu-Phe-Gly-NH2], the IC50 (Cyclin D1) is reported as over 200 µM.
With “H-His-Ala-Leu-Arg-Arg-Leu-Ile Phe-NH2 (H-HALRRLIF-NH2)” the “Relative activity Kinase Inhibition” value (CDK2/cyclin A; [1]) was 0.1 and the “Relative activity Cyclin A Binding” value (Cyclin A; [1]) was 1.4.
With “H-His-Ala-Nle-Arg-Arg-Leu-Ile Phe-NH2 (H-HA[Nle]RRLIF-NH2; SMILES CCCC[C@H](NC(=O)[C@H](C)NC(=O)[C@@H](N)Cc1c[nH]cn1)C(=O)N[C@@H](CCCNC(=N)N)C(=O)N[C@@H](CCCNC(=N)N)C(=O)N[C@@H](CC(C)C)C(=O)N[C@H](C(=O)N[C@@H](Cc1ccccc1)C(N)=O)[C@@H](C)CC)” the “Relative activity Kinase Inhibition” value (CDK2/cyclin A; [1]) was 03 and the “Relative activity Cyclin A Binding” value (Cyclin A; [1]) was 0.2.
In the case of “H-His-Ala-Lys-Ala-Arg-Leu-Ile Phe-NH2 (H-HAKARLIF-NH2)”, the “Relative activity Kinase Inhibition” value (CDK2/cyclin A; [2]) is reported as under 0.1 and the “Relative activity Cyclin A Binding” value (Cyclin A; [2]) is reported as under 0.1.
“H-His-Ala-Lys-Arg-Asn-Leu-Ile Phe-NH2 (H-HAKRNLIF-NH2)” was tested, and the “Relative activity Kinase Inhibition” value (CDK2/cyclin A; [3]) was under 0.1 and the “Relative activity Cyclin A Binding” value (Cyclin A; [3]) was under 0.1.
“H-His-Ala-Lys-Arg-Arg-Phe-Ile Phe-NH2 (H-HAKRRFIF-NH2)” was tested, and the “Relative activity Kinase Inhibition” value (CDK2/cyclin A; [4]) was under 0.1 and the “Relative activity Cyclin A Binding” value (Cyclin A; [4]) was under 0.1.
In the case of “H-Thi-Ala-Lys-Arg-Arg-Leu-Ile Phe-NH2 (XAKRRLIF; N-terminal Thi, C-terminal amide)”, the “Relative activity Kinase Inhibition” value (CDK2/cyclin A; [5]) is reported as 2 and the “Relative activity Cyclin A Binding” value (Cyclin A; [5]) is reported as 0.2.
HAKRRLAF-NH2 was tested, and the “Relative activity Kinase Inhibition” value (CDK2/cyclin A; [6]) was 0.3 and the “Relative activity Cyclin A Binding” value (Cyclin A; [6]) was 0.8.
For “H-His Ala-Lys-Arg-Arg-Ile-Ile Phe-NH2 (H-HAKRRIIF-NH2)”, the “Relative activity Kinase Inhibition” value (CDK2/cyclin A; [4]) was 1.5 and the “Relative activity Cyclin A Binding” value (Cyclin A; [4]) was 0.2.
With “H-His-Ala-Lys-Arg-Arg-Val-Ile Phe-NH2 (H-HAKRRVIF-NH2)” the “Relative activity Kinase Inhibition” value (CDK2/cyclin A; [4]) was under 0.1 and the “Relative activity Cyclin A Binding” value (Cyclin A; [4]) was under 0.1.
For “H-His-Ala-Lys-Gln-Arg-Leu-Ile Phe-NH2 (H-HAKQRLIF-NH2)”, the “Relative activity Kinase Inhibition” value (CDK2/cyclin A; [2]) was under 0.1 and the “Relative activity Cyclin A Binding” value (Cyclin A; [2]) was under 0.1.
In the case of “H-His-Ala-Lys-Arg-Arg-Leu-1Nap-Phe-NH2 (H-HAKRRL[1Nal]F-NH2; SMILES CC(C)C[C@H](NC(=O)[C@H](CCCNC(=N)N)NC(=O)[C@H](CCCNC(=N)N)NC(=O)[C@H](CCCCN)NC(=O)[C@H](C)NC(=O)[C@@H](N)Cc1c[nH]cn1)C(=O)N[C@@H](Cc1cccc2ccccc12)C(=O)N[C@@H](Cc1ccccc1)C(N)=O)”, the “Relative activity Kinase Inhibition” value (CDK2/cyclin A; [6]) is reported as 0.5 and the “Relative activity Cyclin A Binding” value (Cyclin A; [6]) is reported as 0.5.
For “H-His-Phe-Lys-Arg-Arg-Leu-Ile Phe-NH2 (H-HFKRRLIF-NH2)”, the “Relative activity Kinase Inhibition” value (CDK2/cyclin A; [7]) was 0.5 and the “Relative activity Cyclin A Binding” value (Cyclin A; [7]) was 0.2.
For “H-His-Ala-Arg-Arg-Arg-Leu-Ile Phe-NH2 (H-HARRRLIF-NH2)”, the “Relative activity Kinase Inhibition” value (CDK2/cyclin A; [1]) was 5.7 and the “Relative activity Cyclin A Binding” value (Cyclin A; [1]) was 1.5.
For “H-His-Ala-Lys-Nle-Arg-Leu-Ile Phe-NH2 (H-HAKHRLIF-NH2; not fully specified (residue 4); printed as H-His-Ala-Lys-Nle-Arg-Leu-Ile Phe-NH2)”, the “Relative activity Kinase Inhibition” value (CDK2/cyclin A; [2]) was under 0.1 and the “Relative activity Cyclin A Binding” value (Cyclin A; [2]) was under 0.1.
With “H-His Ala-Lys-Arg-Pro-Leu-Ile Phe-NH2 (H-HAKRPLIF-NH2)” the “Relative activity Kinase Inhibition” value (CDK2/cyclin A; [3]) was under 0.1 and the “Relative activity Cyclin A Binding” value (Cyclin A; [3]) was under 0.1.
In the case of “H-His-Ala-Lys-Arg-Arg-1Nap-Ile Phe-NH2 (H-HAKRR[1Nal]IF-NH2; SMILES CC[C@H](C)[C@H](NC(=O)[C@H](Cc1cccc2ccccc12)NC(=O)[C@H](CCCNC(=N)N)NC(=O)[C@H](CCCNC(=N)N)NC(=O)[C@H](CCCCN)NC(=O)[C@H](C)NC(=O)[C@@H](N)Cc1c[nH]cn1)C(=O)N[C@@H](Cc1ccccc1)C(N)=O)”, the “Relative activity Kinase Inhibition” value (CDK2/cyclin A; [4]) is reported as under 0.1 and the “Relative activity Cyclin A Binding” value (Cyclin A; [4]) is reported as under 0.1.
In the case of “H-Ala-Ala-Lys-Arg-Arg-Leu-Ile Phe-NH2 (H-AAKRRLIF-NH2)”, the “Relative activity Kinase Inhibition” value (CDK2/cyclin A; [5]) is reported as 1.8 and the “Relative activity Cyclin A Binding” value (Cyclin A; [5]) is reported as 2.5.
With 112 (H-HSKRRLI[Pse]-OH) [compound 112] the “Relative activity Kinase Inhibition” value (CDK2/cyclin A; relative to H-His-Ala-Lys-Arg-Arg-Leu-Ile-Phe-NH2 (SEQ ID No. 36) = 1, CDK2/cyclin A kinase assay) was under 0.1 and the “Relative activity Cyclin A Binding” value (Cyclin A; relative to SEQ ID No. 36 = 1, competitive cyclin A binding, immobilised biotinyl-Ahx-His-Ala-Lys-Arg-Arg-Leu-Ile-Phe-NH2) was under 0.1.
“H-His-Ala-Lys-Arg-Arg-Leu-Nle Phe-NH2 (H-HAKRRL[Nle]F-NH2; SMILES CCCC[C@H](NC(=O)[C@H](CC(C)C)NC(=O)[C@H](CCCNC(=N)N)NC(=O)[C@H](CCCNC(=N)N)NC(=O)[C@H](CCCCN)NC(=O)[C@H](C)NC(=O)[C@@H](N)Cc1c[nH]cn1)C(=O)N[C@@H](Cc1ccccc1)C(N)=O)” was tested, and the “Relative activity Kinase Inhibition” value (CDK2/cyclin A; [6]) was 0.4 and the “Relative activity Cyclin A Binding” value (Cyclin A; [6]) was 0.3.
In the case of “H-His-Ala-Abu-Arg-Arg-Leu-Ile Phe-NH2 (H-HA[Abu]RRLIF-NH2; SMILES CC[C@H](NC(=O)[C@H](C)NC(=O)[C@@H](N)Cc1c[nH]cn1)C(=O)N[C@@H](CCCNC(=N)N)C(=O)N[C@@H](CCCNC(=N)N)C(=O)N[C@@H](CC(C)C)C(=O)N[C@H](C(=O)N[C@@H](Cc1ccccc1)C(N)=O)[C@@H](C)CC)”, the “Relative activity Kinase Inhibition” value (CDK2/cyclin A; [1]) is reported as 0.8 and the “Relative activity Cyclin A Binding” value (Cyclin A; [1]) is reported as 0.2.
For HAKRRLIW-NH2, the “Relative activity Kinase Inhibition” value (CDK2/cyclin A; [8]) was 0.3 and the “Relative activity Cyclin A Binding” value (Cyclin A; [8]) was 0.1.
“H-His-Ala-Lys-Arg-Arg-Leu-Nva Phe-NH2 (H-HAKRRL[Nva]F-NH2; SMILES CCC[C@H](NC(=O)[C@H](CC(C)C)NC(=O)[C@H](CCCNC(=N)N)NC(=O)[C@H](CCCNC(=N)N)NC(=O)[C@H](CCCCN)NC(=O)[C@H](C)NC(=O)[C@@H](N)Cc1c[nH]cn1)C(=O)N[C@@H](Cc1ccccc1)C(N)=O)” was tested, and the “Relative activity Kinase Inhibition” value (CDK2/cyclin A; [6]) was 0.2 and the “Relative activity Cyclin A Binding” value (Cyclin A; [6]) was 0.6.
For “HAKRRLF-NH2 [H-His-Ala-Lys-Arg-Arg-Leu-Phe-NH2]”, the “Relative activity Kinase Inhibition” value (CDK2/cyclin A; [6]) was under 0.1 and the “Relative activity Cyclin A Binding” value (Cyclin A; [6]) was under 0.1.
“H-His-Ala-Lys-Arg-Arg-Leu-Ile-mFPhe-NH2 (H-HAKRRLI[Phe(3-F)]-NH2; SMILES CC[C@H](C)[C@H](NC(=O)[C@H](CC(C)C)NC(=O)[C@H](CCCNC(=N)N)NC(=O)[C@H](CCCNC(=N)N)NC(=O)[C@H](CCCCN)NC(=O)[C@H](C)NC(=O)[C@@H](N)Cc1c[nH]cn1)C(=O)N[C@@H](Cc1cccc(F)c1)C(N)=O)” was tested, and the “Relative activity Kinase Inhibition” value (CDK2/cyclin A; [8]) was 0.8 and the “Relative activity Cyclin A Binding” value (Cyclin A; [8]) was 0.8.
In the case of “H-His-Nva-Lys-Arg-Arg.Leu-Ile Phe.NH2 (H-H[Nva]KRRLIF-NH2; SMILES CCC[C@H](NC(=O)[C@@H](N)Cc1c[nH]cn1)C(=O)N[C@@H](CCCCN)C(=O)N[C@@H](CCCNC(=N)N)C(=O)N[C@@H](CCCNC(=N)N)C(=O)N[C@@H](CC(C)C)C(=O)N[C@H](C(=O)N[C@@H](Cc1ccccc1)C(N)=O)[C@@H](C)CC)”, the “Relative activity Kinase Inhibition” value (CDK2/cyclin A; [7]) is reported as under 0.1 and the “Relative activity Cyclin A Binding” value (Cyclin A; [7]) is reported as under 0.1.
